According to US20140072613A1, “Compositions and Methods for Treating Cutaneous Scarring” (priority 2012, published 2014):

Experiments:
Experiment in all cases: biochemical
Assay type in all cases: biochemical
[1] = target: 266 human kinases (Homo sapiens, UniProt Q9H4B4); details: Plk3(h); 100 μM
How it was run: (§1)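 Steps: kinase transfers radiolabelled phosphate from ATP onto a positively charged substrate; the substrate is trapped on a negatively charged filter; bound radioactivity is counted by scintillation and compared with uninhibited (100%) activity.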

[2] = target: 266 human kinases (Homo sapiens, UniProt P06493); details: CDK1/cyclinB(h); 100 μM
How it was run: as §1

[3] = target: T1, 266 human kinases (Homo sapiens, UniProt P52333); details: JAK3(h); 100 μM
T1 sequence (P52333 1-1124): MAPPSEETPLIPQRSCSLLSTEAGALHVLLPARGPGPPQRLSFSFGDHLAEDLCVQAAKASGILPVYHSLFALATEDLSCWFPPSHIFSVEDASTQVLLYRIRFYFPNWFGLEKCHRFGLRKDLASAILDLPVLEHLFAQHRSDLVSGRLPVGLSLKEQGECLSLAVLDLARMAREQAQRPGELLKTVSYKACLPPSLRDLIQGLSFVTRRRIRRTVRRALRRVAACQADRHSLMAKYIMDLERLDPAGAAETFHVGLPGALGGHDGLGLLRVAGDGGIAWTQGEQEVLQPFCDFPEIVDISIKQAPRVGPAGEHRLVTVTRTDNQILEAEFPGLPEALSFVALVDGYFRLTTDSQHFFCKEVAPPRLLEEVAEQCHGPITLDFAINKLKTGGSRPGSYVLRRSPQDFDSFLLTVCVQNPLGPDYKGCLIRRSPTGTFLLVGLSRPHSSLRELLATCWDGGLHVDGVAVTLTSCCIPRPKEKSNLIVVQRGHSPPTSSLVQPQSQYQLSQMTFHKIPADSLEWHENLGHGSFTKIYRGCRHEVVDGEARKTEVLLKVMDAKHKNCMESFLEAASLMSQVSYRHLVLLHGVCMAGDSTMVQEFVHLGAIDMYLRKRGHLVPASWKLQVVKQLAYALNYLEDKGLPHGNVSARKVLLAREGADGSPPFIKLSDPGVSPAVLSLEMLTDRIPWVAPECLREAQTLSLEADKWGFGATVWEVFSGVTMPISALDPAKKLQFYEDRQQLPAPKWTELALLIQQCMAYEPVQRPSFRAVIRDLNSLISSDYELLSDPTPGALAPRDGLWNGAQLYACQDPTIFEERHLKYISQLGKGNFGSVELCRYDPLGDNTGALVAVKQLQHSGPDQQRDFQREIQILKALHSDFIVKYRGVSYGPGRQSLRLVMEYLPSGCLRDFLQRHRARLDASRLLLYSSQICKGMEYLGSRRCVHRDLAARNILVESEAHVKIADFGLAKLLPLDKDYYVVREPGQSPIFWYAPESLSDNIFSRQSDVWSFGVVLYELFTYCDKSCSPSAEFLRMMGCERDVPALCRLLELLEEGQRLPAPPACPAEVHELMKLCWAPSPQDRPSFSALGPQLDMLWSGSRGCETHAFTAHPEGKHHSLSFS
How it was run: as §1

[4] = target: 266 human kinases (Homo sapiens, UniProt P00533, T790M); details: EGFR(T790M)(h); 100 μM
How it was run: as §1

[5] = target: 266 human kinases (Homo sapiens, UniProt Q13464); details: ROCK-I(h); 100 μM
How it was run: as §1

[6] = target: 266 human kinases (Homo sapiens, UniProt P04049); details: c-RAF(h); 100 μM
How it was run: as §1

[7] = target: 266 human kinases (Homo sapiens, UniProt O15264); details: SAPK4(h); 100 μM
How it was run: as §1

[8] = target: 266 human kinases (Homo sapiens, UniProt P00519, M351T); details: Abl(M351T)(h); 100 μM
How it was run: as §1

[9] = target: 266 human kinases (Homo sapiens, UniProt Q86Z02); details: HIPK1(h); 100 μM
How it was run: as §1

[10] = target: 266 human kinases (Homo sapiens, UniProt P53667); details: LIMK1(h); 100 μM
How it was run: as §1

[11] = target: 266 human kinases (Homo sapiens, UniProt P00519, H396P); details: Abl(H8396P)(h); 100 μM
How it was run: as §1

[12] = target: 266 human kinases (Homo sapiens, UniProt P50750); details: CDK9/cyclin T1(h); 100 μM
How it was run: as §1

[13] = target: 266 human kinases (Homo sapiens, UniProt P04629); details: TrkA(h); 100 μM
How it was run: as §1

[14] = target: 266 human kinases (Homo sapiens, UniProt Q9NYY3); details: Snk(h); 100 μM
How it was run: as §1

[15] = target: 266 human kinases (Homo sapiens, UniProt Q9Y6M4); details: CK1γ3(h); 100 μM
How it was run: as §1

[16] = target: 266 human kinases (Homo sapiens, UniProt P19784); details: CK2α2(h); 100 μM
How it was run: as §1

Chain of 266 human kinases (Homo sapiens, UniProt P04629) (P04629 33-796): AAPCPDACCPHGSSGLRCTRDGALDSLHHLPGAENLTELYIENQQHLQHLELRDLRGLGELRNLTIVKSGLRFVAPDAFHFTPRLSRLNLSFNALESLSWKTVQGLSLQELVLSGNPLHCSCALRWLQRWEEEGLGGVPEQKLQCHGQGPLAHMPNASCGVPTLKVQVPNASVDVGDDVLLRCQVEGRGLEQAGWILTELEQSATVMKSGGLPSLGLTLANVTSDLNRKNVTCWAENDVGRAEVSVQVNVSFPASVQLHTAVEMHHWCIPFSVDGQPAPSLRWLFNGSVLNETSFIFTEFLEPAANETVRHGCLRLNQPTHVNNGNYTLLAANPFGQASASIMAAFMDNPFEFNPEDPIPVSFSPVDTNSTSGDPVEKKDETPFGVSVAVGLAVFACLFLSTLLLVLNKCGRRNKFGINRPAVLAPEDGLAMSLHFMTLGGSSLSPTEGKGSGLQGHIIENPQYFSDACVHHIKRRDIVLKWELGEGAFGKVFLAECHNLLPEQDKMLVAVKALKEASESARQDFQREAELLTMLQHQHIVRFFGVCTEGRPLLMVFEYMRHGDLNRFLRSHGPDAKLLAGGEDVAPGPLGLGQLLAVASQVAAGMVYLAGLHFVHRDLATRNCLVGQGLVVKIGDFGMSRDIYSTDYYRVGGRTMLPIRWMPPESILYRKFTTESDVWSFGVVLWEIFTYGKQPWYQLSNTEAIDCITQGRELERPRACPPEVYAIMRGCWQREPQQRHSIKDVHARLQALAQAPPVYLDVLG
Chain of 266 human kinases (Homo sapiens, UniProt Q13464) (Q13464 whole entry): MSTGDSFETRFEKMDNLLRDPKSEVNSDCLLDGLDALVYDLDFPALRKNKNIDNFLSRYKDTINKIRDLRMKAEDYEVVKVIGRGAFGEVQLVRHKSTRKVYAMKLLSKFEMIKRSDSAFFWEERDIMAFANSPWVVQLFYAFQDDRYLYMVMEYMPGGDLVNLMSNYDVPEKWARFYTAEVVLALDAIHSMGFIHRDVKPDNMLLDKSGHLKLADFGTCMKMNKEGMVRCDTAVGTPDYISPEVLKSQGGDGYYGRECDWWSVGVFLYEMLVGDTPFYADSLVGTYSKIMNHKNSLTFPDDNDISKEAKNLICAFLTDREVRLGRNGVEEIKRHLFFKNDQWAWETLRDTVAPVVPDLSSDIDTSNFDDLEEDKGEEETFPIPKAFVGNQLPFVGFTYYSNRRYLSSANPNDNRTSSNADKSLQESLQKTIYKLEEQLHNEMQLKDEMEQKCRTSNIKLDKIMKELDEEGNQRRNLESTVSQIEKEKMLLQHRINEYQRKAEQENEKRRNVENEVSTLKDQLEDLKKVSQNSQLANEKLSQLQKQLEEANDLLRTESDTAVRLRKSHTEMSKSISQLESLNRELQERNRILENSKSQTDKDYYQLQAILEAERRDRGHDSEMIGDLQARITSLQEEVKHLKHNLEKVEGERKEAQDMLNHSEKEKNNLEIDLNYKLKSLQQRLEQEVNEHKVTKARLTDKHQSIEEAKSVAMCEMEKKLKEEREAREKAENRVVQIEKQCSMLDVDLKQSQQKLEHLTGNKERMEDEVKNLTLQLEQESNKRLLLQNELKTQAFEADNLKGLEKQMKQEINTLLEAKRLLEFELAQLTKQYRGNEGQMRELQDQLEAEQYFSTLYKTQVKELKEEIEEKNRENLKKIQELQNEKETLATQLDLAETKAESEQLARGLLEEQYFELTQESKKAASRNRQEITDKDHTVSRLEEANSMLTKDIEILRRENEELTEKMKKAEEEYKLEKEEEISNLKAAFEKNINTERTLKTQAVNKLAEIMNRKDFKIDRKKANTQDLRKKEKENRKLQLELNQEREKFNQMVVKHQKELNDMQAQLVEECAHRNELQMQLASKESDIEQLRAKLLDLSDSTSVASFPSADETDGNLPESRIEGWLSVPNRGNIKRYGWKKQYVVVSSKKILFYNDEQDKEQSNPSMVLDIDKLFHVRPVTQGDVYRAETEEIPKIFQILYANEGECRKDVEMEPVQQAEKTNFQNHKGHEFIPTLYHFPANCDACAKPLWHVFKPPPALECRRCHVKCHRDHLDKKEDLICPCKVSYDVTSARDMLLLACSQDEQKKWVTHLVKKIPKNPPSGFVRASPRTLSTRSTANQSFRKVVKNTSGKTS
Chain of 266 human kinases (Homo sapiens, UniProt P53667) (P53667 whole entry): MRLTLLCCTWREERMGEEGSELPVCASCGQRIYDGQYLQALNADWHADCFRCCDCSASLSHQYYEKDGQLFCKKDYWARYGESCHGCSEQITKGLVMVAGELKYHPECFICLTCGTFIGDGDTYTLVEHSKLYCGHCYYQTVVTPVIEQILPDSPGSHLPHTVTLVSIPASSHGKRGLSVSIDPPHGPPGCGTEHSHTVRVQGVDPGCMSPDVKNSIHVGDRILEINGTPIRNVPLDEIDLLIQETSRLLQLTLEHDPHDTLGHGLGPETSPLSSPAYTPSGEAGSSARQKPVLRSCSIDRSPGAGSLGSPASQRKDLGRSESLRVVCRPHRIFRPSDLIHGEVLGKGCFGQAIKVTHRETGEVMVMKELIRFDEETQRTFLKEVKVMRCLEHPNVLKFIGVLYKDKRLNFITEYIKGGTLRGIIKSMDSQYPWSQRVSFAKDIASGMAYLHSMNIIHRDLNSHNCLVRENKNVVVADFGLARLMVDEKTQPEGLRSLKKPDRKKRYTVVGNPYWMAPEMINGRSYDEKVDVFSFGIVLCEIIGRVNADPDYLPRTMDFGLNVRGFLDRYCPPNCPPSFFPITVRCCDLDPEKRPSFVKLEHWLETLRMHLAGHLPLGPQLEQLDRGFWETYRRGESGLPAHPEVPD
Chain of 266 human kinases (Homo sapiens, UniProt P06493) (P06493 whole entry): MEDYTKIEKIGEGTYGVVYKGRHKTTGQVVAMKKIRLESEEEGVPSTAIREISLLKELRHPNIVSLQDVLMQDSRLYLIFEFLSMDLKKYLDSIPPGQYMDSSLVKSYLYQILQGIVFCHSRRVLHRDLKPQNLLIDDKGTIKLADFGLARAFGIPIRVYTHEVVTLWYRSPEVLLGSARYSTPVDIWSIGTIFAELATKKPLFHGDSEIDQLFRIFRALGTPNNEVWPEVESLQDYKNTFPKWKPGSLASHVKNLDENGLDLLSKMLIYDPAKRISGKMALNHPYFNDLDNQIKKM
Chain of 266 human kinases (Homo sapiens, UniProt Q9NYY3) (Q9NYY3 whole entry): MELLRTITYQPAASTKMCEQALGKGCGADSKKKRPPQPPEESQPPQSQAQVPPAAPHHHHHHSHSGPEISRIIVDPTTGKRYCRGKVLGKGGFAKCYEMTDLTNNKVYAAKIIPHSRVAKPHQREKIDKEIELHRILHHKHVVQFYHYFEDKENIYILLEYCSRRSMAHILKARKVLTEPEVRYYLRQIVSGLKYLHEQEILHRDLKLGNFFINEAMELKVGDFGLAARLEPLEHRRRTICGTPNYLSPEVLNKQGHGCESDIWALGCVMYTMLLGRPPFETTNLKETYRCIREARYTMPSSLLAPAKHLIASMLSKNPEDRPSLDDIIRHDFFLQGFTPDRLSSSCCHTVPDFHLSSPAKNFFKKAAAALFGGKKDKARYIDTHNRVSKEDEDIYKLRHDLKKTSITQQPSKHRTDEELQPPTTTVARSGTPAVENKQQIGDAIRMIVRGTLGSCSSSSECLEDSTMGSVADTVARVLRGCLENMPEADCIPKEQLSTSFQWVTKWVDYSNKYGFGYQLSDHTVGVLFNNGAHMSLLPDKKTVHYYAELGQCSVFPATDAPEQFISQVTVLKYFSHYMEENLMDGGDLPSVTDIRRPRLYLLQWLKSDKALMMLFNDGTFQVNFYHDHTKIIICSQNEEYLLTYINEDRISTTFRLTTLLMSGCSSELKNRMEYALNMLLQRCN
Chain of 266 human kinases (Homo sapiens, UniProt P19784) (P19784 whole entry): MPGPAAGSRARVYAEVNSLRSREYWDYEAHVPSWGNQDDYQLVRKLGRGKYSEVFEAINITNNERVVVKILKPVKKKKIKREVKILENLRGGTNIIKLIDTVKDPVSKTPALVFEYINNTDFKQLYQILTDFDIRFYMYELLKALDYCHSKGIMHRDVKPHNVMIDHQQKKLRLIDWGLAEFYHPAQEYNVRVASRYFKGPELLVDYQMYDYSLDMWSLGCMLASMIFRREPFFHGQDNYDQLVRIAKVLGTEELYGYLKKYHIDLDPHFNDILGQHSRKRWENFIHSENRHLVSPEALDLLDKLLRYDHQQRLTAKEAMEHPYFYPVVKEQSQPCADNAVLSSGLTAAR
Chain of 266 human kinases (Homo sapiens, UniProt Q9H4B4) (Q9H4B4 whole entry): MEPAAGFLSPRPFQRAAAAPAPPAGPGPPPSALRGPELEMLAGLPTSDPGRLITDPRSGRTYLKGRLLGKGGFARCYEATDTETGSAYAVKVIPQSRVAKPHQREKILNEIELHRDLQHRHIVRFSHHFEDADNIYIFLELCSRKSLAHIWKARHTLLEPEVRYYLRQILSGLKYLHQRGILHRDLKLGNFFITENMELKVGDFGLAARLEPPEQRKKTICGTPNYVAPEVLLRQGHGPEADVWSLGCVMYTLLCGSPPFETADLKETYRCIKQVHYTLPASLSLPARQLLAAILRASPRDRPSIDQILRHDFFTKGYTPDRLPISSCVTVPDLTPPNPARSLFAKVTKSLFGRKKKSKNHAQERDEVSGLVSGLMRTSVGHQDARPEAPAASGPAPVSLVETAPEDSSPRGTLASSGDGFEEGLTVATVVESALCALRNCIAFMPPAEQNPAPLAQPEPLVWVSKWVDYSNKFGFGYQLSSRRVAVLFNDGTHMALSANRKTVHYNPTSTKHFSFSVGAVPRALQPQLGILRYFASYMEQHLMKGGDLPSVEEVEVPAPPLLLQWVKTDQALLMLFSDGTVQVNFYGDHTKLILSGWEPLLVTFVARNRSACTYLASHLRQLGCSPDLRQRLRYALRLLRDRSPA

| Sequence | % activity [1] | % activity [2] | % activity [3] | % activity [4] | % activity [5] | % activity [6] | % activity [7] | % activity [8] | % activity [9] | % activity [10] | % activity [11] | % activity [12] | % activity [13] | % activity [14] | % activity [15] | % activity [16] |
| --- | --- | --- | --- | --- | --- | --- | --- | --- | --- | --- | --- | --- | --- | --- | --- | --- |
| HRRIKAWLKKIKALARQLGVAA (mammal) [MMI-0500] | 122% | 57% | 95% | 70% | 17% | 19% | 48% | 61% | 47% | 87% | 51% | 6% | 24% | 122% | – | – |
| YARAAARQARAKALNRQLGVA (mammal) [MMI-0200] | – | – | – | – | – | – | – | – | – | – | – | – | – | – | 96% | 88% |
